Test results as given in the supplement of paper PMC12855868.

B1: library; numbered along this chain (parent)
chain: MAAAGGARLLRAASAVLGGPAGRWLHHAGSRAGSSGLLRNRGPGGSAEASRSLSVSARARSSSEDKITVHFINRDGETLTTKGKVGDSLLDVVVENNLDIDGFGACEGTLACSTCHLIFEDHIYEKLDAITDEENDMLDLAYGLTDRSRLGCQICLTKSMDNMTVRVPETVADARQSIDVGKTS

Variants of: B1
Experiment: scaled log2 fold change in cell abundance, elesclomol vs control (0 = silent mean, 1 = nonsense mean) (scaled log2 ratio); higher = higher viability under elesclomol (loss of FDX1 cuproptosis function)
Conditions: glucose 10 mM
[1] = with ABC1 FDX1 KO, elesclomol 5 nM, 14 days
[2] = with HEK293T FDX1 KO, elesclomol 40 nM, 11 days
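Also: variant abundance is its share of total variant reads in each endpoint sample, from next-generation sequencing of the integrated ORF PCR-amplified out of genomic DNA.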

Row | Variant | scaled log2 fold change [1] | scaled log2 fold change [2]
1 | MAAAGGARLLRAASAVLGGPAGRWLHHAGSRAGSSGLLRNRGPGGSAEASRSLSVSARARSSSEDKITVHFINRDGETLTTKGKVGDSLLDVVVENNLDIDGFGAGEGTLACSTCHLIFEDHIYEKLDAITDEENDMLDLAYGLTDRSRLGCQICLTKSMDNMTVRVPETVADARQSIDVGKTS [C106G] | 1.07 | 1.6
2 | MAAAGGARLLRAASAVLGGPAGRWLHHAGSRAGSSGLLRNRGPGGSAEASRSLSVSARARSSSEDKITVHFINRDGETLTTKGKVGDSLLDVVVENNLDIDGFGAEEGTLACSTCHLIFEDHIYEKLDAITDEENDMLDLAYGLTDRSRLGCQICLTKSMDNMTVRVPETVADARQSIDVGKTS [C106E] | 1.06 | 1.3
3 | MAAAGGARLLRAASAVLGGPAGRWLHHAGSRAGSSGLLRNRGPGGSAEASRSLSVSARARSSSEDKITVHFINRDGETLTTKGKVGDSLLDVVVENNLDIDGFGAKEGTLACSTCHLIFEDHIYEKLDAITDEENDMLDLAYGLTDRSRLGCQICLTKSMDNMTVRVPETVADARQSIDVGKTS [C106K] | 1.09 | 1.38
4 | MAAAGGARLLRAASAVLGGPAGRWLHHAGSRAGSSGLLRNRGPGGSAEASRSLSVSARARSSSEDKITVHFINRDGETLTTKGKVGDSLLDVVVENNLDIDGFGAHEGTLACSTCHLIFEDHIYEKLDAITDEENDMLDLAYGLTDRSRLGCQICLTKSMDNMTVRVPETVADARQSIDVGKTS [C106H] | 1.11 | 1
5 | MAAAGGARLLRAASAVLGGPAGRWLHHAGSRAGSSGLLRNRGPGGSAEASRSLSVSARARSSSEDKITVHFINRDGETLTTKGKVGDSLLDVVVENNLDIDGFGAAEGTLACSTCHLIFEDHIYEKLDAITDEENDMLDLAYGLTDRSRLGCQICLTKSMDNMTVRVPETVADARQSIDVGKTS [C106A] | 1.03 | 1.51
6 | MAAAGGARLLRAASAVLGGPAGRWLHHAGSRAGSSGLLRNRGPGGSAEASRSLSVSARARSSSEDKITVHFINRDGETLTTKGKVGDSLLDVVVENNLDIDGFGADEGTLACSTCHLIFEDHIYEKLDAITDEENDMLDLAYGLTDRSRLGCQICLTKSMDNMTVRVPETVADARQSIDVGKTS [C106D] | 1.03 | 1.3
7 | MAAAGGARLLRAASAVLGGPAGRWLHHAGSRAGSSGLLRNRGPGGSAEASRSLSVSARARSSSEDKITVHFINRDGETLTTKGKVGDSLLDVVVENNLDIDGFGAIEGTLACSTCHLIFEDHIYEKLDAITDEENDMLDLAYGLTDRSRLGCQICLTKSMDNMTVRVPETVADARQSIDVGKTS [C106I] | 1.16 | 1.5
8 | MAAAGGARLLRAASAVLGGPAGRWLHHAGSRAGSSGLLRNRGPGGSAEASRSLSVSARARSSSEDKITVHFINRDGETLTTKGKVGDSLLDVVVENNLDIDGFGAFEGTLACSTCHLIFEDHIYEKLDAITDEENDMLDLAYGLTDRSRLGCQICLTKSMDNMTVRVPETVADARQSIDVGKTS [C106F] | 1.03 | 1.44
9 | MAAAGGARLLRAASAVLGGPAGRWLHHAGSRAGSSGLLRNRGPGGSAEASRSLSVSARARSSSEDKITVHFINRDGETLTTKGKVGDSLLDVVVENNLDIDGFGNCEGTLACSTCHLIFEDHIYEKLDAITDEENDMLDLAYGLTDRSRLGCQICLTKSMDNMTVRVPETVADARQSIDVGKTS [A105N] | -0.246 | 0.204
10 | MAAAGGARLLRAASAVLGGPAGRWLHHAGSRAGSSGLLRNRGPGGSAEASRSLSVSARARSSSEDKITVHFINRDGETLTTKGKVGDSLLDVVVENNLDIDGFGVCEGTLACSTCHLIFEDHIYEKLDAITDEENDMLDLAYGLTDRSRLGCQICLTKSMDNMTVRVPETVADARQSIDVGKTS [A105V] | -0.318 | –
11 | MAAAGGARLLRAASAVLGGPAGRWLHHAGSRAGSSGLLRNRGPGGSAEASRSLSVSARARSSSEDKITVHFINRDGETLTTKGKVGDSLLDVVVENNLDIDGFGPCEGTLACSTCHLIFEDHIYEKLDAITDEENDMLDLAYGLTDRSRLGCQICLTKSMDNMTVRVPETVADARQSIDVGKTS [A105P] | 0.895 | 0.503
12 | MAAAGGARLLRAASAVLGGPAGRWLHHAGSRAGSSGLLRNRGPGGSAEASRSLSVSARARSSSEDKITVHFINRDGETLTTKGKVGDSLLDVVVENNLDIDGFGRCEGTLACSTCHLIFEDHIYEKLDAITDEENDMLDLAYGLTDRSRLGCQICLTKSMDNMTVRVPETVADARQSIDVGKTS [A105R] | 0.523 | -0.155
13 | MAAAGGARLLRAASAVLGGPAGRWLHHAGSRAGSSGLLRNRGPGGSAEASRSLSVSARARSSSEDKITVHFINRDGETLTTKGKVGDSLLDVVVENNLDIDGFGTCEGTLACSTCHLIFEDHIYEKLDAITDEENDMLDLAYGLTDRSRLGCQICLTKSMDNMTVRVPETVADARQSIDVGKTS [A105T] | -1.22 | –
14 | MAAAGGARLLRAASAVLGGPAGRWLHHAGSRAGSSGLLRNRGPGGSAEASRSLSVSARARSSSEDKITVHFINRDGETLTTKGKVGDSLLDVVVENNLDIDGFGQCEGTLACSTCHLIFEDHIYEKLDAITDEENDMLDLAYGLTDRSRLGCQICLTKSMDNMTVRVPETVADARQSIDVGKTS [A105Q] | -0.126 | 0.295
15 | MAAAGGARLLRAASAVLGGPAGRWLHHAGSRAGSSGLLRNRGPGGSAEASRSLSVSARARSSSEDKITVHFINRDGETLTTKGKVGDSLLDVVVENNLDIDGFGYCEGTLACSTCHLIFEDHIYEKLDAITDEENDMLDLAYGLTDRSRLGCQICLTKSMDNMTVRVPETVADARQSIDVGKTS [A105Y] | -0.576 | 0.955
16 | MAAAGGARLLRAASAVLGGPAGRWLHHAGSRAGSSGLLRNRGPGGSAEASRSLSVSARARSSSEDKITVHFINRDGETLTTKGKVGDSLLDVVVENNLDIDGFGSCEGTLACSTCHLIFEDHIYEKLDAITDEENDMLDLAYGLTDRSRLGCQICLTKSMDNMTVRVPETVADARQSIDVGKTS [A105S] | -0.302 | 0.253
17 | MAAAGGARLLRAASAVLGGPAGRWLHHAGSRAGSSGLLRNRGPGGSAEASRSLSVSARARSSSEDKITVHFINRDGETLTTKGKVGDSLLDVVVENNLDIDGFGWCEGTLACSTCHLIFEDHIYEKLDAITDEENDMLDLAYGLTDRSRLGCQICLTKSMDNMTVRVPETVADARQSIDVGKTS [A105W] | -0.156 | 0.135
